In patent US20240285749A1:

Biological target: HA ectodomain trimer (UniProt Q289M7)
Assay: Octet

CR6261
Kd (Fab): 0.39 nM

F10
Kd (scFv): 0.063 nM
